Values of other authors, collected in US20240024427A1, “METHOD OF REDUCING INTRAOCULAR PRESSURE” (INVEX THERAPEUTICS LTD, priority 2020, published 2024).
Where two headings read alike, the source gives them in different places.

How the values were obtained:
[1] = conscious rat model, dosed subcutaneously, immediate release formulation

Substance | Mean plasma terminal half-life (per SmPC) | further results
Albiglutide | Approximately 5 days | 
exendin-4 |  | effect on intracranial pressure (ICP) compared to a saline control [1]: reduced ICP
Dulaglutide | 108 to 113 h | 
Lixisenatide |  | Mean plasma terminal half-life (per SmPC or FDA product label): Approximately 3 hours
Semaglutide | Approximately 1 week | 
